The record followed here is patent US20250136710A1.

Usually Kd stands for a measure of binding affinity in units of concentration. A low value points to tighter binding.

Test [1] addresses mouse PVR protein, recombinant (mouse). As to the kind of experiment: SPR / ELISA with recombinant proteins.
Test [2] deals with human PVRIG expressed on cells (human) (UniProt Q6DKI7). In words: FACS. (A flow cytometer gives signals particle by particle.)
Test [3] shares this target. As to the kind of experiment: FACS; Jurkat cells.

human PVRIG expressed on cells (human), sequence (Q6DKI7 41-326): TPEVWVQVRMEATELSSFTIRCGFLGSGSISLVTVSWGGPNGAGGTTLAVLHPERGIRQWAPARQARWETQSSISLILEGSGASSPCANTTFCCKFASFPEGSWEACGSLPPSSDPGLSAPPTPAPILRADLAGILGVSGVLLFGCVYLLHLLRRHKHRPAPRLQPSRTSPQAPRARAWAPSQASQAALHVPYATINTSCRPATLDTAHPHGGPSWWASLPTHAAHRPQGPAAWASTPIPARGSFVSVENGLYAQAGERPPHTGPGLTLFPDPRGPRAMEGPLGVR

As for mouse PVRIG Fc (Fc fusion), in test [1], the fold lower affinity than the interaction with mPVRL2 stood at 10 fold.

For the substance PVRIG (COM701), the Kd was determined as 0.298 nM in test [2] and 0.15 nM in test [3].
